The source of these data is publication PMC5508000, “Identification of the Components Involved in Cyclic Di-AMP Signaling in Mycoplasma pneumoniae” (Frontiers in Microbiology, 2017).

A word on the Km: it is the concentration of substrate that gives half-maximal velocity. By kcat is commonly meant the maximal rate divided by the concentration of active sites.

For series [1], the target named is T1, KtrC (MPN461) (Mycoplasmoides pneumoniae, UniProt P75322).
T1 construct: gene MPN_461; native protein from M. pneumoniae cell extract, identified by mass spectrometry
T1 sequence (P75322 1-231): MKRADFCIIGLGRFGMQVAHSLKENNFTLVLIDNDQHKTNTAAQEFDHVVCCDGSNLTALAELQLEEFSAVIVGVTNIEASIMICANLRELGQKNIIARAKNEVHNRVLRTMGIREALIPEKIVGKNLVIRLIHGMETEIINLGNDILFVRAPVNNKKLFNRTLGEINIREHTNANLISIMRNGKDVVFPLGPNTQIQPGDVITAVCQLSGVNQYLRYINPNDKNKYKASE
As to the kind of experiment: pull-down on c-di-AMP agarose, elution with free c-di-AMP, MS identification. Type of series: binding. The settings on record: labelled compound: immobilised 2'-AHC-c-di-AMP agarose, eluted with 1 mM free c-di-AMP; cell extract; pH 7.5, 4 °C.

Series [2] has as its system O=[N+]([O-])c1ccc(OP(=O)(O)Oc2ccc([N+](=O)[O-])cc2)cc1. Nature of the series: OD410 nitrophenol release, microplate. Type of series: biochemical, Mycoplasmoides pneumoniae. The settings on record: MnCl2 0.1 mM, 100 mM Tris-HCl pH 8.3, 10 mM NaCl, 37 °C. An excerpt: OD410 nitrophenol release, microplate on MPN549 (PdeM)
Substrate in series [3]: O=[N+]([O-])c1ccc(OP(=O)(O)Oc2ccc([N+](=O)[O-])cc2)cc1
Nature of the series: OD410 nitrophenol release, microplate. Type of series: biochemical, Mycoplasmoides pneumoniae. The settings on record: MnCl2 0.1 mM, 100 mM Tris-HCl pH 8.3, 10 mM NaCl, 37 °C. From the text: OD410 nitrophenol release, microplate on MPN140 (NrnA)
This is another data set of the same source.

Substrate in series [4]: O=[N+]([O-])c1ccc(OP(=O)(O)Oc2ccc([N+](=O)[O-])cc2)cc1
As to the kind of experiment: OD410 nitrophenol release, microplate. Type of series: biochemical, Bacillus subtilis. The settings on record: MnCl2 0.1 mM, 100 mM Tris-HCl pH 8.3, 10 mM NaCl, 37 °C. From the text: OD410 nitrophenol release, microplate on GdpP

Consider `Nc1ncnc2c1ncn2[C@@H]1O[C@@H]2COP(=O)(O)O[C@H]3[C@@H](O)[C@H](n4cnc5c(N)ncnc54)O[C@@H]3COP(=O)(O)O[C@H]2[C@H]1O` [c-di-AMP], for which the “pull-down on c-di-AMP agarose, elution with free c-di-AMP, MS identification” value in series [1] was “c-di-AMP-binding proteins were eluted with free c-di-AMP”.
For the molecule “MPN549 (PdeM) (Mycoplasmoides pneumoniae M129)”, the Michaelis constant (Km) in series [2] was determined as 600 µM.

B1: MPN140 (NrnA) (Mycoplasmoides pneumoniae M129) (protein)
chain: MNSQVHRKGSIAEAVSAIQAHDKIVIFHHIRPDGDCLGAQHGLARLIQTNFPHKQVFCVGDPKHNFPWLEMVFTPKEQITPELMQQALAVIVDANYKERIECRDLLDQNQFKAVLRIDHHPNEDDLNTTHNFVDASYIAAAEQVVDLAVQAKWKLSPPAATALYLGIYTDSNRFLYSNTSWRTLYLGSMLYRAQANIAKIHDELNHTSLKDIQFKQYVFKNFQTFQNVIYFVADKKFQKKLKVTPLECARVNILANIEQFHIWLFFIEEGKNHYRVEFRSNGINVREVALKYGGGGHIQASGAVLKSKRDIIRVVQDCQKQIAV
B1: in series [3], the Km stood at 1600 µM and the kcat turned out to be 3.67e-06 s⁻¹.

B2: GdpP (Bacillus subtilis subsp. subtilis str. 168) (protein)
chain: PIGIMLFNDQYYIEWANPFLSSCFNESTLVGRSLYDTCESVVPLIKQEVESETVTLNDRKFRVVIKRDERLLYFFDVTEQIQIEKLYENERTVLAYIFLDNYDDVTQGLDDQTRSTMNSQVTSLLNAWAQEYGIFLKRTSSERFIAVLNEHILTELENSKFSILDEVREKTSFDGVALTLSVGVGASVSSLKELGDLAQSSLDLALGRGGDQVAIKLPNGKVKFYGGKTNPMEKRTRVRARVISHALKEIVTESSNVIIMGHKFPDMDSIGAAIGILKVAQANNKDGFIVIDPNQIGSSVQRLIGEIKKYEELWSRFITPEEAMEISNDDTLLVIVDTHKPSLVMEERLVNKIEHIVVIDHHRRGEEFIRDPLLVYMEPYASSTAELVTELLEYQPKRLKINMIEATALLAGIIVDTKSFSLRTGSRTFDAASYLRAKGADTVLVQKFLKETVDSYIKRAKLIQHTVLYKDNIAIASLPENEEEYFDQVLIAQAADSLLSMSEVEASFAVARRDEQTVCISARSLGEVNVQIIMEALEGGGHLTNAATQLSGISVSEALERLKHAIDEYFEGGVQR
notes: cytoplasmic portion, residues 84-659, C-terminal Strep-tag, expressed in E. coli BL21(DE3), plasmid pGP2720
As to B2, the Michaelis constant (Km) in series [4] was 1450 µM.
